From US11833215B2, “CKIT antibody drug conjugates” (Novartis AG, priority 2014, dated 2023)
Where a chain is given by its changes, count along the chain named.

B1: NEG027: anti-cKIT antibody of Table 3, VH SEQ ID NO 64, VL SEQ ID NO 73 (antibody, listed as Homo sapiens, V domains shown)
VH: EVQLVESGGGLVQPGGSLRLSCAASGFTFSDYYMAWVRQAPGKGLEWVASINQNTGSTYYLDSVRGRFTISRDNAKNSLYLQMNSLRAEDTAVYYCARGDYYGTTYWYFDVWGQGTTVTVSS
VL: EIVMTQSPATLSLSPGERATLSCRASQDISNYLNWYQQKPGQAPRLLIYYTSRLQSGIPARFSGSGSGTDYTLTISSLEPEDFAVYYCQQGKKLWSFGGGTKVEIK
B2: NEG087: anti-cKIT antibody of Table 3, VH SEQ ID NO 118, VL SEQ ID NO 127 (antibody, listed as Homo sapiens, V domains shown)
VH: B1 VH
VL: DIQMTQSPSSLSASVGDRVTITCRASQSISSYLNWYQQKPGKAPKLLIYYTSRLQSGVPSRFSGSGSGTDFTLTISSLQPEDFATYYCQQGRRLWSFGGGTKVEIK
B3: NEG086: anti-cKIT antibody of Table 3, VH SEQ ID NO 100, VL SEQ ID NO 109 (antibody, listed as Homo sapiens, V domains shown)
VH: B1 VH with S50N, N54I, T55A, L61V, R65Q
VL: B2 VL
B4: NEG026: anti-cKIT antibody of Table 3, VH SEQ ID NO 46, VL SEQ ID NO 55 (antibody, listed as Homo sapiens, V domains shown)
VH: B1 VH with S50N, L61V, R65Q
VL: B1 VL
B5: 9P3: hybridoma derived anti-cKIT antibody, VH SEQ ID NO:9, VL SEQ ID NO:18 (antibody, listed as Homo sapiens, V domains shown)
VH: EVRLVESEGGLVQPRSSMKLSCTASGFTFSDYYMAWVRQVPEKGLEWVANINYDGSSTYYLDSLKSRFIISRDNAKNILYLQMSSLKSEDTATYYCARGDYYGTTYWYFDVWGTGTTVTVSS
VL: DIQMTQTTSSLSASLGDRVTISCRASQDISNYLNWYQQKPDGTVKLLIYYTSRLQSGVPSRFSGSGSGTDYSLTISNLEQEDIATYFCQQGKKLWSFGGGTKLEIKR

What was measured:
Uke-1 cells = assay: ADCC activity in vitro (Calcein release, NK3.3 effector cells); assay type: cell-based; settings: unconjugated IgG1, effector to target ratio 20 to 1
Procedure: The ability of the unconjugated anti-cKIT antibodies (NEG085, 20376) to mediate antibody dependent cellular cytotoxicity was determined versus Uke-1 cells (target cells; generously provided by Professor Walter Fiedler, University Hospital Eppendorf, Hamburg, Germany) in co-incubation with NK3.3 cells (killer cells or effector cells; kindly provided by Jacky Kornbluth from Saint Louis University). […] In order to calculate the antibody specific lysis of the target cells, a parallel incubation of target cells only without antibody or effector cells served as a baseline and negative control, whereas the positive control or maximal lysis or hundred percent specific lysis was determined by lysis of target cells only with a 1% Triton-X 100 solution. […] Following a co-incubation of target and effector cells, the microtiterplate was centrifuged and an aliquot of the supernatant fluid was transferred to another microtiterplate (96 well, flat-bottomed, black with clear bottom; (Corning Costar, catalog #3904, Tewksbury, MA) and the concentration of free Calcein in solution was determined with a fluorescence counter (Victor 3 ® multilabel counter, Perkin Elmer, Waltham, MA).

GIST cell lines = settings: SR-1 as second therapeutic on Imatinib treated cells; cited from earlier work
human cKIT = target: T1, human cKIT (Homo sapiens, UniProt P10721); assay: SPR (Biacore) affinity measurement; assay type: binding; settings: 25° C., 1:1 model
T1 construct: Human cKIT tr. variant 2 , residues 26-520-TAG; made in house; host or cells: HEK293 derived cell line 293FS, transient transfection
Procedure: (§1) Affinity of the antibodies to cKIT species orthologues and also to cKIT was determined using SPR technology using a Biacore® 2000 instrument (GE Healthcare, Pittsburgh, PA) and with CM5 sensor chips.
(§2) Briefly, HBS-P (0.01 M HEPES, pH 7.4, 0.15 M NaCl, 0.005% Surfactant P20) supplemented with 2% Odyssey® blocking buffer (Li-Cor Biosciences, Lincoln, NE) was used as the running buffer for all the experiments. The immobilization level and analyte interactions were measured by response unit (RU). Pilot experiments were performed to test and confirm the feasibility of the immobilization of the anti-human Fc antibody (Catalog number BR100839, GE Healthcare, Pittsburgh, PA) and the capture of the test antibodies.
(§3) For kinetic measurements, the experiments were performed in which the antibodies were captured to the sensor chip surface via the immobilized anti-human Fc antibody and the ability of the cKIT proteins to bind in free solution was determined. Briefly, 25 μg/ml of anti-human Fc antibody at pH 5 was immobilized on a CM5 sensor chip through amine coupling at flow rate of 5 μl/minute on all two flow cells to reach 10,500 RUs. 0.1-1 μg/ml of test antibodies were then injected at 10 μl/min for 1 minute. Captured levels of the antibodies were generally kept below 200 RUs. Subsequently, 3.125 −50 nM of cKIT receptor extracellular domains (ECD) were diluted in a 2-fold series and injected at a flow rate of 40 μl/min for 3 min over both reference and test flow cells. Table of tested ECDs is listed below (Table 6). Dissociation of the binding was followed for 10 min. After each injection cycle, the chip surface was regenerated with 3 M MgCl2 at 10 μl/min for 30 seconds.

mouse cKIT = target: T2, mouse cKIT (Mus musculus, UniProt P05532); assay: SPR (Biacore) affinity measurement; assay type: binding; settings: 25° C., 1:1 model
T2 construct: cKIT receptor extracellular domains (ECD) were diluted in a 2-fold series
T2 sequence (P05532 25-527 limits assumed): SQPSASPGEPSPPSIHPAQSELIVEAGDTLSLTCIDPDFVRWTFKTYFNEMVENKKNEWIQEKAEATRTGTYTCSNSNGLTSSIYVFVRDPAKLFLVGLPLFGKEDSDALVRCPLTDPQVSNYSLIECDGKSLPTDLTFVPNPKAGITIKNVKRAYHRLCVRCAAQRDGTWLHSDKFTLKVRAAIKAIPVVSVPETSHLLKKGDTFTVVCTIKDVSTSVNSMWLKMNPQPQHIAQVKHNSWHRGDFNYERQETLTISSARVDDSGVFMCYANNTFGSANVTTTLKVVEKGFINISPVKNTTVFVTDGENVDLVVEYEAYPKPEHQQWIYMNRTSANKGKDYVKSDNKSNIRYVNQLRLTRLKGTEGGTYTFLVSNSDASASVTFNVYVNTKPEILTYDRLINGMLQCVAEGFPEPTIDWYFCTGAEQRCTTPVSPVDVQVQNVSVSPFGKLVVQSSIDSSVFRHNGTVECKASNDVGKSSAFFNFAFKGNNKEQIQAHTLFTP
Procedure: as §1, §2, §3

rat cKIT = assay: SPR (Biacore) affinity measurement; assay type: binding; settings: 25° C., 1:1 model
Procedure: as §1, §2, §3

SCF binding to cKIT = SCF binding to cKIT (Homo sapiens, UniProt P10721); assay: competition assays using ELISA and FACS
SCF binding to cKIT, sequence (P10721 26-976): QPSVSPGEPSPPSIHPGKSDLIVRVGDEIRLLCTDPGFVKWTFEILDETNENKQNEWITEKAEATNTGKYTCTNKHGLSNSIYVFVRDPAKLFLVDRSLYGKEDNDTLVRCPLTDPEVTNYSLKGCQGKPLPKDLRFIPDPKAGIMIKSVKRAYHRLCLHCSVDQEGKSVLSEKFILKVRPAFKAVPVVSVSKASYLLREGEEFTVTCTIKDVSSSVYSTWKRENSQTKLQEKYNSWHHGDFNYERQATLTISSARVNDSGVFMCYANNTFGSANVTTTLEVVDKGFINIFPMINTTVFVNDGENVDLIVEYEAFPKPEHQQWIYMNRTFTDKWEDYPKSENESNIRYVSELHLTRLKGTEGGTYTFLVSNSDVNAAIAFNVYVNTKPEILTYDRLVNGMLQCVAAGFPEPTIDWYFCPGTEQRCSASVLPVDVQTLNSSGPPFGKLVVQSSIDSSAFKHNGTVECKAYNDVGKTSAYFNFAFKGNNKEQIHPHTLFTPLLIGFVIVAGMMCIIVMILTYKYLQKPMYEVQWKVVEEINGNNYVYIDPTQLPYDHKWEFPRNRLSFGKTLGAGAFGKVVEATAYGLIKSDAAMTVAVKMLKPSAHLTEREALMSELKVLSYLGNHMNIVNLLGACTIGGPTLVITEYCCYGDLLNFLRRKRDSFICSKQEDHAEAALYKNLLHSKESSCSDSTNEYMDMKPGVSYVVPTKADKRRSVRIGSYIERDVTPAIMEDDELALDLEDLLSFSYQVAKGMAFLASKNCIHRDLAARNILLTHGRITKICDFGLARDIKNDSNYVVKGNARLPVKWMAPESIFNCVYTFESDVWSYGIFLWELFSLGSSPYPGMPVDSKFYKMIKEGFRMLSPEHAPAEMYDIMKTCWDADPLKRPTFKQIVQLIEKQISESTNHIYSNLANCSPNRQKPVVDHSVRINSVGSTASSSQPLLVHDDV

rat cKIT, sequence (as listed by the source): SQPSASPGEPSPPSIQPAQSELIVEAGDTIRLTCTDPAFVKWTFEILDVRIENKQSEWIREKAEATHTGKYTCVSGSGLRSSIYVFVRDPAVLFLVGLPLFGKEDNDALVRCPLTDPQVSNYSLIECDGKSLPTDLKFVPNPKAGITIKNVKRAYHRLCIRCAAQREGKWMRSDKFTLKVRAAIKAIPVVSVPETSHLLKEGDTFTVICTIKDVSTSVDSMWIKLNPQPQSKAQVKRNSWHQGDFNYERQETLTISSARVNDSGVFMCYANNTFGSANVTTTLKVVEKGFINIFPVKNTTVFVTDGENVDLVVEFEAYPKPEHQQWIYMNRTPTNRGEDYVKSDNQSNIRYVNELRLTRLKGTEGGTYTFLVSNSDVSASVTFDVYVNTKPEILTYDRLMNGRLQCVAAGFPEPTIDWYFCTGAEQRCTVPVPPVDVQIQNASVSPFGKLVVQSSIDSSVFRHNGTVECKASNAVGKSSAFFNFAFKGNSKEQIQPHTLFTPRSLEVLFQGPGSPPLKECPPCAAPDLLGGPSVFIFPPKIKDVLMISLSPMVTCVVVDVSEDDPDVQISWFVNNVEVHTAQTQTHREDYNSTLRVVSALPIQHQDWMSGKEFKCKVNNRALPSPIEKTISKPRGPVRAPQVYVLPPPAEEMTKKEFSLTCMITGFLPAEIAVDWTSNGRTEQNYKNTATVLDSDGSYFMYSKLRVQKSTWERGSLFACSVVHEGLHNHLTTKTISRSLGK
T1 sequence (P10721 with tags, fused parts or gaps isoform P10721-2): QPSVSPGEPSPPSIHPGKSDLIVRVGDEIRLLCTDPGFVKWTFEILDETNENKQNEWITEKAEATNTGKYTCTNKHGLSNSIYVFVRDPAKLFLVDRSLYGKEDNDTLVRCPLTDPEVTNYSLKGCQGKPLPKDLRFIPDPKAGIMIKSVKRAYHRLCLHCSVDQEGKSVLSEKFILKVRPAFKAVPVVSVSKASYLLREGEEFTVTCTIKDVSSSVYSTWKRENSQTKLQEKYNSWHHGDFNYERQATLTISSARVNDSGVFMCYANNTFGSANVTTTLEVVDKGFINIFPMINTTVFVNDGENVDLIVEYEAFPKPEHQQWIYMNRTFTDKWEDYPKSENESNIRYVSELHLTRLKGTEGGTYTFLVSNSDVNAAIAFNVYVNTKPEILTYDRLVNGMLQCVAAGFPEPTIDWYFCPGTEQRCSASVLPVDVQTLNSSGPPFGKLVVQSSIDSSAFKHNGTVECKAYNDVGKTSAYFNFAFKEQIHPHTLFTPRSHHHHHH

Molecule	ADCC killing of target cells (Uke-1 cells)	proliferation of GIST cells (GIST cell lines)	Affinity human cKIT (nM) (human cKIT)	Affinity mouse cKIT (nM) (mouse cKIT)	Affinity to rat cKIT (nM) (rat cKIT)	blocking of SCF binding to cKIT (SCF binding to cKIT)
MabCampath® [reference compound]	mediated ADCC killing					
Cc1ccc(NC(=O)c2ccc(CN3CCN(C)CC3)cc2)cc1Nc1nccc(-c2cccnc2)n1 [imatinib]		significantly reduce proliferation				
B1			nanomolar level	Not reactive	Not reactive	
B2			nanomolar level	Not reactive	Not reactive	
B3			nanomolar level	Not reactive	Not reactive	
B4				Not reactive	Not reactive	
B5			nanomolar level	Not reactive	Not reactive	partial blocking
